Source: paper PMC11417369, “DNA sequence and chromatin differentiate sequence-specific transcription factor binding in the human malaria parasite Plasmodium falciparum”

T1: AP2-G D1 (Plasmodium falciparum, UniProt Q8I5I9 2123-2245)
T1 sequence: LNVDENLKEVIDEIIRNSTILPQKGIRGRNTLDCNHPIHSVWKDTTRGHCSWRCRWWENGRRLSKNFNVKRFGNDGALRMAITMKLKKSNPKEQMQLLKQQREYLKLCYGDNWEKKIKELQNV

B1: XGTACX_negctrl_site380 (dsDNA)
DNA 1: TTTTTTAAAAGATATATAATATGTATGAATATTCAA
DNA 2: TTGAATATTCATACATATTATATATCTTTTAAAAAA
B2: XGTACX_negctrl_site160 (dsDNA)
DNA 1: ACATGCCAAAATCTAATACAATAATAATAAAAAAAA
DNA 2: TTTTTTTTATTATTATTGTATTAGATTTTGGCATGT
B3: XGTACX_negctrl_site279 (dsDNA)
DNA 1: TTTTTACTATAAGGGGAAAAAAAAAAAAATAATATA
DNA 2: TATATTATTTTTTTTTTTTTCCCCTTATAGTAAAAA
B4: XGTACX_negctrl_site614 (dsDNA)
DNA 1: TAATTCGCAAAAGAAAGAAATTAAGAAAAAGAAAAA
DNA 2: TTTTTCTTTTTCTTAATTTCTTTCTTTTGCGAATTA
B5: XGTACX_negctrl_site102 (dsDNA)
DNA 1: TTCTTTTTATTTATATTTTCCCCTCTCTATAGCTAT
DNA 2: ATAGCTATAGAGAGGGGAAAATATAAATAAAAAGAA
B6: XGTACX_negctrl_site421 (dsDNA)
DNA 1: TATAAGAGAAGAAGAAAAAAAAGGTTTCTATAGAAA
DNA 2: TTTCTATAGAAACCTTTTTTTTCTTCTTCTCTTATA
B7: XGTACX_negctrl_site555 (dsDNA)
DNA 1: TTCTTTATTTATCATTATAAGAAGAGTTGATTTGTT
DNA 2: AACAAATCAACTCTTCTTATAATGATAAATAAAGAA
B8: XGTACX_negctrl_site69 (dsDNA)
DNA 1: AGAGTAGGAAATGGAAAAATAAAATAAATAAATAAA
DNA 2: TTTATTTATTTATTTTATTTTTCCATTTCCTACTCT
B9: XGTACX_negctrl_site14 (dsDNA)
DNA 1: AAATAAAAAGAAAAGAAAAAGAAAATAAAAAGAGAA
DNA 2: TTCTCTTTTTATTTTCTTTTTCTTTTCTTTTTATTT
B10: XGTACX_negctrl_site524 (dsDNA)
DNA 1: AAAACTATTAATGCAAAAAATAAAATATAATAATAA
DNA 2: TTATTATTATATTTTATTTTTTGCATTAATAGTTTT
B11: XGTACX_negctrl_site66 (dsDNA)
DNA 1: TTTTGAGAAAAAATAAAATAATAAATAAAAATACAT
DNA 2: ATGTATTTTTATTTATTATTTTATTTTTTCTCAAAA
B12: XGTACX_negctrl_site480 (dsDNA)
DNA 1: TTGATAAAAAAAAAAAAATAAAAAAAAAATAAAAAA
DNA 2: TTTTTTATTTTTTTTTTATTTTTTTTTTTTTATCAA
B13: XGTACX_negctrl_site314 (dsDNA)
DNA 1: TAATTTATAAGGTATAACAACAATTGCATCTATCAC
DNA 2: GTGATAGATGCAATTGTTGTTATACCTTATAAATTA
B14: XGTACX_negctrl_site268 (dsDNA)
DNA 1: AAAACAAATTTTAATGAGAATATGAAAAAAAAATAT
DNA 2: ATATTTTTTTTTCATATTCTCATTAAAATTTGTTTT
B15: XGTACX_negctrl_site448 (dsDNA)
DNA 1: ATATAAGATTACAAAAATTATGTGTAAATATTTAAT
DNA 2: ATTAAATATTTACACATAATTTTTGTAATCTTATAT
B16: XGTACX_negctrl_site426 (dsDNA)
DNA 1: TATTAAAATTAAAAAAAAAAAAAAAAGCAATAAAAA
DNA 2: TTTTTATTGCTTTTTTTTTTTTTTTTAATTTTAATA
B17: XGTACX_negctrl_site599 (dsDNA)
DNA 1: TTTTTGTAAACCTACTTCATAATTATTTATATCTAT
DNA 2: ATAGATATAAATAATTATGAAGTAGGTTTACAAAAA
B18: XGTACX_negctrl_site181 (dsDNA)
DNA 1: ATTCGTAGTTTTATGAATTAATATAATAAAAATTAA
DNA 2: TTAATTTTTATTATATTAATTCATAAAACTACGAAT
B19: XGTACX_negctrl_site595 (dsDNA)
DNA 1: TTATATTATGTTCAATCAAAAATTATTTTTAAAAAA
DNA 2: TTTTTTAAAAATAATTTTTGATTGAACATAATATAA
B20: XGTACX_negctrl_site427 (dsDNA)
DNA 1: TTCTATATTTTAGCTGATAATATTATGAGCTTCACT
DNA 2: AGTGAAGCTCATAATATTATCAGCTAAAATATAGAA
B21: XGTACX_negctrl_site190 (dsDNA)
DNA 1: AATAGAAACATTTTACATGTATATATAATTTTTTTT
DNA 2: AAAAAAAATTATATATACATGTAAAATGTTTCTATT
B22: XGTACX_negctrl_site187 (dsDNA)
DNA 1: AATATATATATATATATATATATTTCAATATATAAA
DNA 2: TTTATATATTGAAATATATATATATATATATATATT
B23: XGTACX_negctrl_site283 (dsDNA)
DNA 1: TACTAAAATATATATATGCAACATGAGATATTCAAC
DNA 2: GTTGAATATCTCATGTTGCATATATATATTTTAGTA
B24: XGTACX_negctrl_site507 (dsDNA)
DNA 1: ATAAAAAATAAATATATACATACATACATACATATA
DNA 2: TATATGTATGTATGTATGTATATATTTATTTTTTAT
B25: XGTACX_negctrl_site347 (dsDNA)
DNA 1: AAAATGGAACTAGGAATAATATAAGAAGATAAAAGG
DNA 2: CCTTTTATCTTCTTATATTATTCCTAGTTCCATTTT
B26: XGTACX_negctrl_site395 (dsDNA)
DNA 1: TTATTAGAGATGTTAAGATATAGGGATAATTTCGAT
DNA 2: ATCGAAATTATCCCTATATCTTAACATCTCTAATAA
B27: XGTACX_negctrl_site180 (dsDNA)
DNA 1: TACATATAAATATATAAATATAAATAAATAAATAAA
DNA 2: TTTATTTATTTATTTATATTTATATATTTATATGTA
B28: XGTACX_negctrl_site374 (dsDNA)
DNA 1: AATAAACATTATTTTCGTATTCCAATTCTTTTTTTT
DNA 2: AAAAAAAAGAATTGGAATACGAAAATAATGTTTATT
B29: XGTACX_negctrl_site461 (dsDNA)
DNA 1: ATGAATTTTTCTCTACAAAAGGATATAATAAAAATA
DNA 2: TATTTTTATTATATCCTTTTGTAGAGAAAAATTCAT
B30: XGTACX_negctrl_site546 (dsDNA)
DNA 1: AGCCCTTTTTTTTTTTAGAATATTGCATAATTATAT
DNA 2: ATATAATTATGCAATATTCTAAAAAAAAAAAGGGCT
B31: XGTACX_negctrl_site587 (dsDNA)
DNA 1: TATGAAAAAAAAAAAAAAAAAAAAAAAAAAAAAAAA
DNA 2: TTTTTTTTTTTTTTTTTTTTTTTTTTTTTTTTCATA
B32: XGTACX_negctrl_site224 (dsDNA)
DNA 1: TTGTTTCTTAAATTATTTATTTTATATTAAAAAAAA
DNA 2: TTTTTTTTAATATAAAATAAATAATTTAAGAAACAA
B33: XGTACX_negctrl_site373 (dsDNA)
DNA 1: ATTTATAATGATTTTTTTAGTAATCTTGTTATTTTT
DNA 2: AAAAATAACAAGATTACTAAAAAAATCATTATAAAT
B34: XGTACX_negctrl_site501 (dsDNA)
DNA 1: AAATTATAAAAAAAAAAAAAAAAAAAAAAAAAAAAA
DNA 2: TTTTTTTTTTTTTTTTTTTTTTTTTTTTTATAATTT
B35: XGTACX_negctrl_site80 (dsDNA)
DNA 1: AAACATTTATCAATGAATCTTTTAATAAGTGTAAAG
DNA 2: CTTTACACTTATTAAAAGATTCATTGATAAATGTTT
B36: XGTACX_negctrl_site572 (dsDNA)
DNA 1: TTAGGAAGCTCACAAAATAAAGTGAAAAGAAGAAAA
DNA 2: TTTTCTTCTTTTCACTTTATTTTGTGAGCTTCCTAA
B37: XGTACX_negctrl_site188 (dsDNA)
DNA 1: AAAGTATAACGGATACCATTTATGTGATTATTTTGT
DNA 2: ACAAAATAATCACATAAATGGTATCCGTTATACTTT
B38: XGTACX_negctrl_site277 (dsDNA)
DNA 1: TTATTTTACTTTTATGCAACTAAAAATATTGCTATA
DNA 2: TATAGCAATATTTTTAGTTGCATAAAAGTAAAATAA
B39: XGTACX_negctrl_site88 (dsDNA)
DNA 1: AAGGGGAGAAAAATAAACGAAATATATACATACATA
DNA 2: TATGTATGTATATATTTCGTTTATTTTTCTCCCCTT
B40: XGTACX_negctrl_site542 (dsDNA)
DNA 1: TACATTTCATTGTAATCATAAAAAATAAAGAAAAAA
DNA 2: TTTTTTCTTTATTTTTTATGATTACAATGAAATGTA
B41: XGTACX_negctrl_site200 (dsDNA)
DNA 1: GTCCTTATGGATGATAAATTATTTTAAATATTCTAT
DNA 2: ATAGAATATTTAAAATAATTTATCATCCATAAGGAC
B42: XGTACX_negctrl_site149 (dsDNA)
DNA 1: AGAATTTAGAAACAATGTTGTATATGTAATACCTTT
DNA 2: AAAGGTATTACATATACAACATTGTTTCTAAATTCT
B43: XGTACX_negctrl_site331 (dsDNA)
DNA 1: AAGGAATAAAATTTAGAAGACAATTTTATTTCAGTA
DNA 2: TACTGAAATAAAATTGTCTTCTAAATTTTATTCCTT

These binders were tested against T1, AP2-G D1 (assay: gcPBM; about 25 ug protein; PBS, 1% milk, 0.2 mg/ml BSA, salmon testes DNA, 0.03% Triton X-100). Conditions: tags: N-terminal GST (pGEX-4T-1), kept; label: surface-attached array probe.

Binder	binding signal
B1	9.71 ln median PBM intensity, better of two orientations
B2	9.83 ln median PBM intensity, better of two orientations
B3	9.81 ln median PBM intensity, better of two orientations
B4	9.81 ln median PBM intensity, better of two orientations
B5	9.73 ln median PBM intensity, better of two orientations
B6	9.78 ln median PBM intensity, better of two orientations
B7	9.71 ln median PBM intensity, better of two orientations
B8	9.72 ln median PBM intensity, better of two orientations
B9	9.83 ln median PBM intensity, better of two orientations
B10	9.83 ln median PBM intensity, better of two orientations
B11	9.8 ln median PBM intensity, better of two orientations
B12	9.72 ln median PBM intensity, better of two orientations
B13	9.69 ln median PBM intensity, better of two orientations
B14	9.74 ln median PBM intensity, better of two orientations
B15	9.81 ln median PBM intensity, better of two orientations
B16	9.73 ln median PBM intensity, better of two orientations
B17	9.69 ln median PBM intensity, better of two orientations
B18	9.77 ln median PBM intensity, better of two orientations
B19	9.82 ln median PBM intensity, better of two orientations
B20	9.67 ln median PBM intensity, better of two orientations
B21	9.8 ln median PBM intensity, better of two orientations
B22	9.75 ln median PBM intensity, better of two orientations

Binder	binding signal
B23	9.82 ln median PBM intensity, better of two orientations
B24	9.8 ln median PBM intensity, better of two orientations
B25	9.72 ln median PBM intensity, better of two orientations
B26	9.76 ln median PBM intensity, better of two orientations
B27	9.74 ln median PBM intensity, better of two orientations
B28	9.74 ln median PBM intensity, better of two orientations
B29	9.76 ln median PBM intensity, better of two orientations
B30	9.79 ln median PBM intensity, better of two orientations
B31	9.69 ln median PBM intensity, better of two orientations
B32	9.8 ln median PBM intensity, better of two orientations
B33	9.69 ln median PBM intensity, better of two orientations
B34	9.83 ln median PBM intensity, better of two orientations
B35	9.73 ln median PBM intensity, better of two orientations
B36	9.76 ln median PBM intensity, better of two orientations
B37	9.78 ln median PBM intensity, better of two orientations
B38	9.82 ln median PBM intensity, better of two orientations
B39	9.83 ln median PBM intensity, better of two orientations
B40	9.7 ln median PBM intensity, better of two orientations
B41	9.79 ln median PBM intensity, better of two orientations
B42	9.82 ln median PBM intensity, better of two orientations
B43	9.81 ln median PBM intensity, better of two orientations
